Assay [1] concerns the target T1, RSV postfusion F (postF), subtype A (respiratory syncytial virus, subtype A, UniProt P03420 26-513).
T1 construct: also called F ΔFP; Postfusion subtype A
Put plainly: BLI, IgG. (In general: Biolayer interferometry detects binding as a change in optical thickness at a sensor tip.)

Assay [2] deals with RSV prefusion F (preF), subtype B (respiratory syncytial virus, subtype B). As to the kind of experiment: BLI, IgG.
For assay [3], the target named is T2, RSV postfusion F (postF), subtype B (respiratory syncytial virus, subtype B).
T2 construct: also called F ΔFP; Postfusion subtype B
Put plainly: BLI, IgG.

Another assay deals with RSV F on RSV-A2 virus (Respiratory syncytial virus, RSV-A2, UniProt P03420 26-574). As to the kind of experiment: cell-based or functional assay.
The target of assay [4] is RSV prefusion F (preF), DS-Cav1 (Respiratory syncytial virus, UniProt P03420 26-513). Put plainly: BLI, IgG on anti-human IgG sensor, 100 nM antigen.
Assay [5] deals with RSV postfusion F (postF), F ΔFP (Respiratory syncytial virus, UniProt P03420 26-513). Put plainly: BLI, IgG on anti-human IgG sensor, 100 nM antigen.
Assay [6] concerns the target RSV prefusion F (preF), subtype A (respiratory syncytial virus, subtype A, UniProt P03420 26-513). Put plainly: BLI, IgG.

The text below walks through data of patent publication US20260258115A1 (MAPP BIOPHARMACEUTICAL, published 2026).

B1: ADI-14598 (antibody, V domains shown)
VH: QVQLVQSGAEVKKPGSSVKVSCKASGGTFSSYAIYWVRQAPGQGLECMGGIIPIFGSANYAQKFQGRVTITADESTSTAYMELSSLRSEDTAVYYCATDSLKTTYYYGSSGYFRDHVWGQGTTVTVSS
VL: ETTLTQSPSSLSASVGDRVTITCRASQGISNYLAWYQQKPGKVPKLLIFAASTLQSGVPSRFSGSGSGTDFTLTISSLQPEDVATYYCQNFNSVLSFTFGPGTKVDIK
The term Kd denotes the free concentration of one partner at which half of the binding sites on the other are occupied at equilibrium, for simple one-to-one binding. High values mean a looser complex, low ones a tighter complex. As for B1, the Kd was 0.452 nM in assay [1], 7.07 nM in assay [2] and 4.81 nM in assay [3].

B2: ADI-41664 (antibody, V domains shown)
VH: EVQLVQSGDEVKKPGASVKVSCKASGYPFSTYGISWVRQAPGQGLEWMGWIGVYTGGTNYAQKFQGRVTLTTDTSTSTAYMELRSLRSDDTAVYYCARGTGSYMTATYFDYWGQGTLVTVSS
VL: SYELTQPPSVSVAPGQTARITCGGNNIGSKAVHWYQQKPGQAPVLVVYDDYDRPSGIPERFSGSNSGNTATLTISRVEAGDEADYYCQVWDSSSDYVFGTGTKLTVL
notes: also called Ab 890; Antibody Number 890
With B2, the “Neutralization IC50 (RSV subtype A)” value in the assay with RSV F on RSV-A2 virus is > 25 µg/mL. Also, the values for the Kd in assay [4] and in assay [5] were 2.94 nM and 0.825 nM, respectively.

B3: ADI-20997 (antibody, V domains shown)
VH: EVQLVESGGGVVQPGRSLRLSCAASGFPFNSYGMHWVRQAPGKGLEWLAVIYFDESTAYYADSVKGRFTISRDNSKSTLYLQMNSLRAADTAIYYCTTTVMIPYGGVFWGQGTLVTVSS
VL: EIVMTQSPGTLSLSPGDRATLSCRASQSVGSTHFAWYQQKPGQAPRLLIYAASIRATGIPDRFSGGGSGTDFTLTISRLAPEDFAVYYCQQYGSTPITFGQGTRLEIK
Regarding B3, the Kd in assay [2] is 3.09 nM; in assay [3], 0.609 nM.

B4: ADI-41611 (antibody, V domains shown)
VH: EVQLVESGGGLVKPGGSLRLSCAASGFTFSDYSMNWVRQAPGKGLEWVSSTSSGSTYIYYADSVKGRFTISRDNGKNSLYLQMNSLRAEDTAVYYCARAFRLGYDALDIWGQGTMVTVSS
VL: DIRMTQSPSSLSASVGDRVTIICRASQSISNYLNWYQQKPGKAPKLLIYVASNLQSGVPSRFSGSGSGTDFTLTISSLQPEDFATYYCQQTYSPPPTFGGGTKLEIK
notes: also called Ab 885; Antibody Number 885
For the molecule B4, in the assay with RSV F on RSV-A2 virus, the “Neutralization IC50 (RSV subtype A)” value was > 25 µg/mL. For the same molecule, the Kd worked out at 3.09 nM in assay [4] and 0.611 nM in assay [5].

B5: ADI-41644 (antibody, V domains shown)
VH: QVQLQQWGPGLVKPSETLSLSCAVSGGSLRGHFWSWIRQPPGKGLEWIGEINHGGRTNFNPSLKSRLTISEDSSKNQFSLKLSSVTAADTAVYYCARRWGYDSSGYYFFDYWGQGTLVTVSS
VL: EIQMTQSPATLSVSPGERATLSCRASQTLGFNLAWYQQKPGQSPRLLIYGASTRATGIPARFSGSGAGTEFTLTISSLQSEDFAVYFCQQYSNYYTFGQGTKVEIK
notes: also called Ab 887; Antibody Number 887
For the molecule B5, the “Neutralization IC50 (RSV subtype A)” value in the assay with RSV F on RSV-A2 virus is > 25 µg/mL. The Kd turned out to be 3.03 nM in assay [4] and 1.1 nM in assay [5].

B6: ADI-21056 (antibody, V domains shown)
VH: EVQLLESGGGLVKPGGSLKLSCAASGFTLRSYYMHWVRQAPGRGLEWVSSISASSSYINYVDAVKGRFTVSRDNAKNSLFLQMNSLRAEDTAVYYCAREGGAMTNFGVVIDIWGQGTMVTVSS
VL: SYVLTQPPSVSGAPGQRVTISCTGSSSNIGAGYDVHWYQQLPGTAPKLLIYTNTNRPSGVPDRFSGSKSGTSASLAITGLQSDDEADYYCQSYDSSLSGPVVFGGGTKLTVL
For B6, the results for the Kd in assay [2] and in assay [3] were 0.223 nM and 63.4 nM, respectively.

B7: ADI-41626 (antibody, V domains shown)
VH: EVQLQESGPGLVKPSGTLSLTCAVAGGFISSGNWWSWIRQPPGKGLEWIGEVYHSGRTSYNPSLKSRVTISVDNSKNQFSLKMSSVTAADTAVYYCARVESYSSSGYYIAYFDNWGQGNLVTVSS
VL: DIVLTQSPSSLSASVGDRVTITCRASQSISRYLSWYQQKPGKAPKLLIYAAFSLQTGVPSRFSGSGSGTDFTLTISSFQTEDSATYYCQQSYSAPVTFGGGTKVEIK
For B7, the “Neutralization IC50 (RSV subtype A)” value with RSV F on RSV-A2 virus was > 25 µg/mL. Moreover, the Kd in assay [4] was determined as 2.6 nM; in assay [5], 0.891 nM.

B8: ADI-41607 (antibody, V domains shown)
VH: EVQLVESGPGLVKPSQTLSLTCTVSGGSINIGGYYWSWIRQHPEKGLEWIGYIYYSGTTYYNPSLESRVTISIDTSKNQFSLNLSSVTAADTAVYYCASVDQIGATRFDYWGQGTLVTVSS
VL: QPVLTQPRSVSGSPGQSVTLSCTGTSSDVGTYNYVSWYQHHPGKAPKLIIYDVNKRPSGVPDRFSGSKSGNTASLTISGLQAEDEADYYCCSYAGSYTLNYVFGTGTKLTVL
Regarding B8, in the assay with RSV F on RSV-A2 virus, the “Neutralization IC50 (RSV subtype A)” value is > 25 µg/mL. The figures for the Kd in assay [4] and in assay [5] were 4.24 nM and 0.709 nM, respectively.

B9: ADI-14404 (antibody, V domains shown)
VH: EVQLVESGGGLVQPGGSLRLSCAASGFTFSNFEMNWVRQAPGKGLEWVSYISSSGRIIYYADSVKGRFTISRDNARNSLYVQMNSLRVEDTAVYYCARAKAAAGHDLWGQGTLVTVSS
VL: EIVLTQSPSTLSASVGDRVTITCRASQSISPWLAWYQQKPGKAPKLLIYRASSLESGVPSRFSGSGSGTEFTLTISSLQPDDFATYYCQHYNSYLYTFGQGTKVEIK
notes: also called Ab 70
B9: the binding result in assay [6] is given as “no binding”. Besides, the Kd in assay [1] amounted to 0.627 nM; in assay [3], 0.498 nM.

B10: ADI-41608 (antibody, V domains shown)
VH: QVQLVQSGDEVKKPGESLKISCKGSEHTFTNYWIAWVRQMPGKGLECMGVIWPDDSDTKYSPSFQGQVTISADKSINTAYLHLSSLRASDTAMYYCATSKFRTGFDFWGQGTLVTVSS
VL: NFMLTQPHSVSESPGKTVIISCTRSSGNIASNYVQWYQQRPGSSPTTVVYEDNQRPSGVPDRFSGSIDSSSNSASLTISGLKTEDEADYYCQSYDSSNPWVFGGGTKLTVL
As for B10, in the assay with RSV F on RSV-A2 virus, the “Neutralization IC50 (RSV subtype A)” value is > 25 µg/mL. The figures for the Kd in assay [4] and in assay [5] were 1.93 nM and 0.285 nM, respectively.

B11: ADI-14605 (antibody, V domains shown)
VH: EVQLLESGPALVKPTQTLTLTCTFSGFSLTTSGMCVSWIRQPPGKALEWLARIDWDDDQYFSTSLRTRLSISKDTSKNQVVLTMTNMDPVDTATYYCARSALNIAARGFDIWGQGTTVTVSS
VL: QPGLTQPPSVSVSPGQTARITCSGDVLPKHFSYWYQQKPGQAPVLVIHRDSERPSGIPERFSGSSSGTTVTLTISGVQAEDEADYYCQFSDITNTVFGGGTKLTVL
As for B11, the Kd is 2.72 nM in assay [2] and 0.399 nM in assay [3].

B12: ADI-41662 (antibody, V domains shown)
VH: QVQLVQSGAEVKKAGESLKISCKGPRHSFTSYWIGWVRQMPGKGLEWMASIYPGDSDSRYSPSFEGQVTISADKSIDTAFLQWSSLKASDTAMYFCARYVGAVPGGNWYFDLWGRGTLVTVSS
VL: SYELIQLPSVSVSPGQTARITCSGDALPKKYAYWYQQKSGQAPVLVIYDDNKRPSGIPARFSGSSSGTMATLTISGAQVEDEGDYYCYSTDSTGDHRGVFGGGTKLTVL
Regarding B12, the “Neutralization IC50 (RSV subtype A)” value with RSV F on RSV-A2 virus is > 25 µg/mL. The Kd was determined as 5.24 nM in assay [4] and 1.21 nM in assay [5].

B13: ADI-41660 (antibody, V domains shown)
VH: EVQLVQSGAEVKKPGSSVKVSCKASGGTFSRNAISWVRQAPGQGLEWMGGIIPIFGAANYPQKFQGRVTITADKSTSTAYMELSSLRSEDTALYYCARTMGEMTTTPVSIYYYGMDVWGQGTTVTVSS
VL: QSVLTQPPSVSAAPGQKVTISCSGSSSNIGINYVSWYQQLPGTAPKLLIYDNNKRPSGIPDRFSGSKSGTSATLGITGLQTGDEADYYCGTWDSSLSAGYVFGSGTKLTVL
B13: in the assay with RSV F on RSV-A2 virus, the “Neutralization IC50 (RSV subtype A)” value is > 25 µg/mL. For the same molecule, the Kd in assay [4] worked out at 2.94 nM; in assay [5] it was 0.955 nM.
